Measured values as given in patent US11078465B2, “Alcohol dehydrogenase mutant and application thereof in synthesis of diaryl chiral alcohols” (Jiangnan University, priority 2018, dated 2021).
Substitutions are numbered along the chain they refer to. Names and notes keep the numbering of the source. “Also recorded” adds a separate entry of the source.

Columns and labels:
Assay type in all cases: biochemical
[1] = Stereoselectivity on different substrates; conditions: for Stereoselectivity (ee): configuration in brackets
How it was run: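 Alcohol dehydrogenase mutants reduced prochiral ketones, including CPMK, aryl pyridyl and diaryl ketones, acetophenones and keto esters. Reactions were extracted into ethyl acetate and redissolved in ethanol. Conversion and ee were determined by chiral liquid and gas chromatography, with ee calculated from (S)- and (R)-CPMA molar concentrations.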

[2] = Substrate specificity, specific activity
How it was run: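 Alcohol dehydrogenase mutants were assayed with 1.0 mM NADPH and 1.0 mM ketone substrate (CPMK or other prochiral carbonyls) in 100 mM sodium phosphate, pH 7.0, at 30° C. NADPH oxidation was followed at 340 nm; one U oxidizes 1 μmol NADPH per min (ε 6220).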

[3] = Stereoselectivity (ee) of CPMK reduction, chiral liquid chromatography; conditions: for e.e.: product configuration in brackets
How it was run: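 ee is calculated from the (S)-CPMA and (R)-CPMA molar concentrations measured by chiral liquid chromatography; conversion also by GC. Samples are ethyl acetate extracts of the reaction, dried and redissolved in ethanol.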

[4] = Asymmetric reduction in 20 mL biocatalytic system, conversion
Description: In an embodiment of the present disclosure, a chromatographic analysis method is as follows: 100 μL of reactant liquid is taken, 500 μL of ethyl acetate is added, shaking is performed for 1-2 min, centrifugation is performed at 12,000 rpm for 2-5 min, supernatant liquid is taken into a centrifuge tube, after an organic phase naturally volatilizes completely, 500 μL of chromatographically pure ethanol is added, and chiral liquid chromatography and gas chromatography are performed to analyze the transformation rate and the ee value.
The pure (R)-CPMA were recrystallized from ethyl acetate at 4° C. and gave 99.9% optical purity. […] Besides, the conversion cannot reach 100% with 24 h in the asymmetric reduction of (4-bromophenyl)-(phenyl)-methanone and p-nitrobenzophenone due to the low enzyme activity.

[5] = Stereoselectivity on different substrates; conditions: configuration in brackets
How it was run: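 Reaction mixture extracted with ethyl acetate, dried organic phase redissolved in ethanol, then analysed by chiral liquid chromatography and gas chromatography. Values are transformation rate and ee, with ee from LC molar concentrations of (S)- and (R)-CPMA. Substrates were prochiral ketones reduced by alcohol dehydrogenase mutants.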

[6] = Kinetic analysis of alcohol dehydrogenase and mutants (NADPH oxidation, 340 nm, double reciprocal curve); conditions: substrate CPMK
How it was run: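 His-tagged recombinant KpADH (wild type or mutant) purified by nickel affinity, desalted into Tris-HCl pH 7.0. Activity measured at 30° C in 100 mM sodium phosphate pH 7.0 with 1.0 mM NADPH and 1.0 mM CPMK by 340 nm NADPH absorbance decrease; kinetic parameters from double reciprocal plots over varied substrate and coenzyme concentrations.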

[7] = substrate [drawing 10], acetophenone
[8] = substrate [drawing 11], 4-chloroacetophenone
[9] = substrate [drawing 12], 4-chlorobenzoyl chloride
[10] = substrate [drawing 16], (4-bromophenyl)-(phenyl)-methanone
[11] = substrate [drawing 17], p-nitrobenzophenone
[12] = substrate [drawing 6], 4-chlorophenacyl chloride
[13] = substrate [drawing 9], ethyl 4-chloro-3-oxobutanoate
[14] = substrate [drawing 14], likely CPMK (values partly match Table 4)

B1: E214S/S237C: serine for glutamate at position 214 and cysteine for serine at position 237 of SEQ ID No. 2 (protein)
chain: MSVLISGASGYIAKHIVRVLLEQNYKVIGTVRSQDKADKLLKQYNNPNLSYEIVPEIANLDAFDDIFKKHGKEIKYVIHAASPVNFGAKDLEKDLVIPAINGTKNMFEAIKKYAPDTVERVVMTASYASIMTPHRQNDPTLTLDEETWNPVTEENAYENVFTAYCASKTFAEKEAWKFVKENSDAVKFKLTTIHPSFVFGPQNFDEDVTKKLNSTCEIINGLLHAPFDTKVEKTHFCQFIDVRDVAKTHVLGFQKDELINQRLLLCNGAFSQQDIVNVFNEDFPELKGQFPPEDKDTDLNKGVTGCKIDNEKTKKLLAFEFTPFHKTIHDTVYQILHKEGRV
modifications: Protein translated from synthetic DNA
ee value ([1]; substrate 4-chlorobenzoyl chloride): 99.6% | Stereoselectivity (ee) [1, 7]: 98.9 (R) | Stereoselectivity (ee) [1, 8]: 95.6 (R) | Stereoselectivity (ee) [1, 9]: 99.6 (R) | Stereoselectivity (ee) [1, 10]: 90.6 (R) | Stereoselectivity (ee) [1, 11]: 91.9 (R) | specific activity ([2]; substrate [drawing 1]): 0.19 U/mg | specific activity ([2]; substrate [drawing 2]): 0.09 U/mg | specific activity ([2]; substrate [drawing 3]): 0.25 U/mg | specific activity ([2]; substrate [drawing 4]): 5.69 U/mg | specific activity ([2]; substrate [drawing 5]): 2.55 U/mg | specific activity [2, 12]: 5.96 U/mg | specific activity ([2]; substrate [drawing 7]): 15.58 U/mg | specific activity ([2]; substrate [drawing 8]): 30.69 U/mg | specific activity [2, 13]: 1.59 U/mg | configuration of product / stereoselectivity in words [3]: inversion from the R configuration to the S configuration; also recorded: (S)-CPMA | e.e. [3]: 52.0 (S) | Conversion rate ([4]; 4-chlorobenzoyl chloride 100 mM, 1 h): 66% | Conversion rate ([4]; 4-chlorobenzoyl chloride 100 mM, 2 h): 79% | Conversion rate ([4]; 4-chlorobenzoyl chloride 100 mM, 3 h): 90% | Conversion rate ([4]; 4-chlorobenzoyl chloride 100 mM, 4 h): 98% | Conversion rate ([4]; 4-chlorobenzoyl chloride 100 mM, 6 h): 99.2% | Conversion rate ([4]; 4-chlorobenzoyl chloride 100 mM, 8 h): 99.8% | Conversion rate ([4]; 4-chlorobenzoyl chloride 100 mM, 12 h): >99.9% | Conversion rate ([4]; 4-chlorobenzoyl chloride 100 mM, 24 h): >99.9% | Conversion rate ([4]; 4-chlorobenzoyl chloride 200 mM, 1 h): 55% | Conversion rate ([4]; 4-chlorobenzoyl chloride 200 mM, 2 h): 69% | Conversion rate ([4]; 4-chlorobenzoyl chloride 200 mM, 3 h): 76% | Conversion rate ([4]; 4-chlorobenzoyl chloride 200 mM, 4 h): 85.9% | Conversion rate ([4]; 4-chlorobenzoyl chloride 200 mM, 6 h): 96.4% | Conversion rate ([4]; 4-chlorobenzoyl chloride 200 mM, 8 h): 99.1% | Conversion rate ([4]; 4-chlorobenzoyl chloride 200 mM, 12 h): 99.8% | Conversion rate ([4]; 4-chlorobenzoyl chloride 200 mM, 24 h): >99.9% | Conversion rate ([4]; 4-chlorobenzoyl chloride 500 mM, 1 h): 35.6% | Conversion rate ([4]; 4-chlorobenzoyl chloride 500 mM, 2 h): 49.6% | Conversion rate ([4]; 4-chlorobenzoyl chloride 500 mM, 3 h): 66.4% | Conversion rate ([4]; 4-chlorobenzoyl chloride 500 mM, 4 h): 79.3% | Conversion rate ([4]; 4-chlorobenzoyl chloride 500 mM, 6 h): 89.0% | Conversion rate ([4]; 4-chlorobenzoyl chloride 500 mM, 8 h): 95.6% | Conversion rate ([4]; 4-chlorobenzoyl chloride 500 mM, 12 h): 96.9% | Conversion rate ([4]; 4-chlorobenzoyl chloride 500 mM, 24 h): 98.9% | Stereoselectivity (ee) ([5]; substrate [drawing 13]): 52.6 (R) | Stereoselectivity (ee) [5, 14]: 52.0 (S) | Stereoselectivity (ee) ([5]; substrate [drawing 15]): 88.1 (R) | Stereoselectivity (ee) ([5]; substrate [drawing 18]): 92.3 (R) | Kcat [6]: 8.33 ± 0.17 s⁻¹ | Km [6]: 400 ± 20 µM | Vmax [6]: 12.5 ± 0.16 µM/min/mg

B2: E214I/S237A: isoleucine for glutamate at position 214 and alanine for serine at position 237 of SEQ ID No. 2 (protein)
chain: B1 chain with S214I, C237A
modifications: Protein translated from synthetic DNA
ee ([1]; substrate 4-chloroacetophenone, (R)): 99.4% | Stereoselectivity (ee) [1, 7]: 9.69 (R) | Stereoselectivity (ee) [1, 8]: 99.4 (R) | Stereoselectivity (ee) [1, 9]: 76.4 (R) | Stereoselectivity (ee) [1, 10]: 93.4 (S) | Stereoselectivity (ee) [1, 11]: 86.5 (S) | specific activity ([2]; substrate [drawing 1]): 0.09 U/mg | specific activity ([2]; substrate [drawing 2]): 0.08 U/mg | specific activity ([2]; substrate [drawing 3]): 1.42 U/mg | specific activity ([2]; substrate [drawing 4]): 2.94 U/mg | specific activity ([2]; substrate [drawing 5]): 12.38 U/mg | specific activity [2, 12]: 30.09 U/mg | specific activity ([2]; substrate [drawing 7]): 21.73 U/mg | specific activity ([2]; substrate [drawing 8]): 30.28 U/mg | specific activity [2, 13]: 5.58 U/mg | ee value, (R)-CPMA ([3]; R configuration product, listed as E2141/S237A): 98.3% | e.e. [3]: 98.3 (R) | Conversion rate ([4]; 4-chloroacetophenone 100 mM, 1 h): 59% | Conversion rate ([4]; 4-chloroacetophenone 100 mM, 2 h): 72% | Conversion rate ([4]; 4-chloroacetophenone 100 mM, 3 h): 89% | Conversion rate ([4]; 4-chloroacetophenone 100 mM, 4 h): 85% | Conversion rate ([4]; 4-chloroacetophenone 100 mM, 6 h): 97.6% | Conversion rate ([4]; 4-chloroacetophenone 100 mM, 8 h): 99.8% | Conversion rate ([4]; 4-chloroacetophenone 100 mM, 12 h): >99.9% | Conversion rate ([4]; 4-chloroacetophenone 100 mM, 24 h): >99.9% | Conversion rate ([4]; 4-chloroacetophenone 200 mM, 1 h): 40% | Conversion rate ([4]; 4-chloroacetophenone 200 mM, 2 h): 52.4% | Conversion rate ([4]; 4-chloroacetophenone 200 mM, 3 h): 69.5% | Conversion rate ([4]; 4-chloroacetophenone 200 mM, 4 h): 76.9% | Conversion rate ([4]; 4-chloroacetophenone 200 mM, 6 h): 88.6% | Conversion rate ([4]; 4-chloroacetophenone 200 mM, 8 h): 95.6% | Conversion rate ([4]; 4-chloroacetophenone 200 mM, 12 h): 99.2% | Conversion rate ([4]; 4-chloroacetophenone 200 mM, 24 h): 99.7% | Conversion rate ([4]; 4-chloroacetophenone 500 mM, 1 h): 28.5% | Conversion rate ([4]; 4-chloroacetophenone 500 mM, 2 h): 38.9% | Conversion rate ([4]; 4-chloroacetophenone 500 mM, 3 h): 50.0% | Conversion rate ([4]; 4-chloroacetophenone 500 mM, 4 h): 64.2% | Conversion rate ([4]; 4-chloroacetophenone 500 mM, 6 h): 80.9% | Conversion rate ([4]; 4-chloroacetophenone 500 mM, 8 h): 90.2% | Conversion rate ([4]; 4-chloroacetophenone 500 mM, 12 h): 94.9% | Conversion rate ([4]; 4-chloroacetophenone 500 mM, 24 h): 99.2% | Stereoselectivity (ee) ([5]; substrate [drawing 13]): 36.8 (R) | Stereoselectivity (ee) [5, 14]: 98.4 (R) | Stereoselectivity (ee) ([5]; substrate [drawing 15]): 52.6 (S) | Stereoselectivity (ee) ([5]; substrate [drawing 18]): 81.8 (S) | Kcat [6]: 12.06 ± 0.52 s⁻¹ | Km [6]: 470 ± 50 µM | Vmax [6]: 18.09 ± 0.78 µM/min/mg
